From US20200131473

System: ETAA1-ATR activating domain (ETAA1-AAD)
Sequence (chain, as listed by the source): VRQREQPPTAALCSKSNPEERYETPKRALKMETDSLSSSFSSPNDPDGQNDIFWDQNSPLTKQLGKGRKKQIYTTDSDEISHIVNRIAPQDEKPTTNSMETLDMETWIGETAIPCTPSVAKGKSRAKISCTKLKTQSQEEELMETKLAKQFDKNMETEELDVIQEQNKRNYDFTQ

Chain of ATR (ATM and Rad3-related kinase) (chain, as listed by the source): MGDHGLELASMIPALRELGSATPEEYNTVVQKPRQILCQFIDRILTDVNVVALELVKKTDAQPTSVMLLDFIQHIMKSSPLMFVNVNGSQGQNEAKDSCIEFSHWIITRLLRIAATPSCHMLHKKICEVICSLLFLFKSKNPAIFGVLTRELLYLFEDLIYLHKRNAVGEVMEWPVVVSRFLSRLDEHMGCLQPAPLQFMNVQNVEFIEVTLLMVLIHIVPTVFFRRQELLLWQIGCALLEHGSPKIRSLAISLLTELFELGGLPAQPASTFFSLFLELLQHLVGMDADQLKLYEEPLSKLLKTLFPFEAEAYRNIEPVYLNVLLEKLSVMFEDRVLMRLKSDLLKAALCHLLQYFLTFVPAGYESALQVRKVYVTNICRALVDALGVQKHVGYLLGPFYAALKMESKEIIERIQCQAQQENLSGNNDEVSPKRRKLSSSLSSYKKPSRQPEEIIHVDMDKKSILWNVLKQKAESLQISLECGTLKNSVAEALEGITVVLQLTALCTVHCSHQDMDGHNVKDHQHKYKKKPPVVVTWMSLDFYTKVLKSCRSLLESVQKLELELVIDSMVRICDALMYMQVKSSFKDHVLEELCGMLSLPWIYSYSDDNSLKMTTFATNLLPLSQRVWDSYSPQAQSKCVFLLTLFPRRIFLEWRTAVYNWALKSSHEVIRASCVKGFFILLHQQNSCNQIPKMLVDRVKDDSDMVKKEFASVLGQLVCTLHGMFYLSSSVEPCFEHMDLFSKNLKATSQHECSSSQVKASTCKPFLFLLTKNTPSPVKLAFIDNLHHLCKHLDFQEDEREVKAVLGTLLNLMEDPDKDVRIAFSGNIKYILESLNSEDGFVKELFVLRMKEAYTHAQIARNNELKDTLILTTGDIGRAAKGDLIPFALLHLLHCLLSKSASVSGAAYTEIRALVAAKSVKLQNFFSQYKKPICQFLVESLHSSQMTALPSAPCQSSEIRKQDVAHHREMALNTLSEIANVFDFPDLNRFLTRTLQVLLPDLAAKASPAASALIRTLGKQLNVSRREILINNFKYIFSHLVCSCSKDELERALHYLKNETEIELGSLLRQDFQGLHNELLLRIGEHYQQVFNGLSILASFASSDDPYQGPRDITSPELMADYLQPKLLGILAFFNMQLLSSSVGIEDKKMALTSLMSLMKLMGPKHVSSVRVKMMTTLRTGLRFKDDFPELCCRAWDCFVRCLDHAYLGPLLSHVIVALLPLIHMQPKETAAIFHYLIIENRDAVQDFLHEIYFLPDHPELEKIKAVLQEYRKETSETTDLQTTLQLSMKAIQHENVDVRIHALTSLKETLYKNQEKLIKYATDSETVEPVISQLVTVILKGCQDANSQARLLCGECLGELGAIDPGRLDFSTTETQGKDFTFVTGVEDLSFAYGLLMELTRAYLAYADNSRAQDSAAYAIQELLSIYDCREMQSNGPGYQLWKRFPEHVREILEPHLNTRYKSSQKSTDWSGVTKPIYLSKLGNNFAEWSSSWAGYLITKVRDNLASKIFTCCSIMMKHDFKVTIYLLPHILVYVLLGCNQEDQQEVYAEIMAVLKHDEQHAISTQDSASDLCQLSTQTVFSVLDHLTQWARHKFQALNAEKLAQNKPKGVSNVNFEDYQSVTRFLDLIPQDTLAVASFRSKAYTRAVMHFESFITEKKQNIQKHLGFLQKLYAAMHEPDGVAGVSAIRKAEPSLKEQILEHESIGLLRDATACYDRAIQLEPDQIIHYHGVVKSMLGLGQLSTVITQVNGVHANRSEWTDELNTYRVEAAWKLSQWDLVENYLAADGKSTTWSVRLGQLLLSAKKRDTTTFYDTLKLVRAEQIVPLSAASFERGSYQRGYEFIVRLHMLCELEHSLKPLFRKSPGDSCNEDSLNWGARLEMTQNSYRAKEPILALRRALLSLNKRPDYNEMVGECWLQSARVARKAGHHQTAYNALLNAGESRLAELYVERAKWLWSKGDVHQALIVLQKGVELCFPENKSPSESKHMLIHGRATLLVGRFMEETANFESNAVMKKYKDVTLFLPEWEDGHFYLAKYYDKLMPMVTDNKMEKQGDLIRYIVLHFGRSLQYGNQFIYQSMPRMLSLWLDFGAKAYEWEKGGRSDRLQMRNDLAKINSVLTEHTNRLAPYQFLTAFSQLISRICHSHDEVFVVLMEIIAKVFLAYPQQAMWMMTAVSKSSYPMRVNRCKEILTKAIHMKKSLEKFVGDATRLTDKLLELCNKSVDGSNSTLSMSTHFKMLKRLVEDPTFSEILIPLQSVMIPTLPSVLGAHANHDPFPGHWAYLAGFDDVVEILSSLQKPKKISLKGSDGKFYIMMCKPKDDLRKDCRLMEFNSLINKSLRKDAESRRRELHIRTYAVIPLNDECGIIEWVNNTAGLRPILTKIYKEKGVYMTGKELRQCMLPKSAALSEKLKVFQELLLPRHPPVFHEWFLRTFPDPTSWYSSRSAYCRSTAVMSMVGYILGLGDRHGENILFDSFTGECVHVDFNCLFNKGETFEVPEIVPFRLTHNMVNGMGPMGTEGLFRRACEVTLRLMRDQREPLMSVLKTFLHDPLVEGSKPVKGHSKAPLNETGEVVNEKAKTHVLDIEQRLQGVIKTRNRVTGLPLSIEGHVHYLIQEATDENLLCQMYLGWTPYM

ATR (ATM and Rad3-related kinase)
phosphorylation of H2AX, CHK1 and CHK2 (immunoblot and FACS in Dox-iETAA1 ESCs): ATR activation through ETAA1 expression leads to the phosphorylation of H2AX and CHK1 but not CHK2 in ESCs
